Laboratory results from the supplement of paper PMC10567573.
± gives the standard deviation.

Test: protein stability index of a GFP-peptide fusion (GPS, HEK-293T) (PSI 1-6); higher = more stable
Settings: c terminus: a fixed tail appended
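Note: 24-mer peptide tiles fused after GFP, lentivirally expressed, FACS-sorted into six equal bins by GFP/DsRed ratio, decoded by Illumina sequencing, PSI is the read-weighted mean bin number.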

Sequence	protein stability index (treatment: DMSO)	protein stability index (treatment: MLN4924 1 uM, 8 h)
DNDPSCVHPIIKRRQCRPEIRMWQ [PHTF1]	2.54 ± 0.25	2.5 ± 0.41
DNHNLIERRRRFNINDRIKELGTL [TFE3]	3.33 ± 0.13	3.69 ± 0.22
DNVPDPKDVKERFSGSLVAALSAT [TMEM175]	4.42 ± 0.34	4.44 ± 0.34
DPGQDLVPKQAIQVQEADEAGWGG [DLX1]	5.18 ± 0.28	5.22 ± 0.4
DPSSTKPGTLLKTSPSPERSLLLK [TRIM14]	4.59 ± 0.2	4.67 ± 0.21
DPTGPAGLGRPTPGLSQGPGKETL [EHMT1]	5.17 ± 0.15	5.09 ± 0.13
DPVRQCAECALVSLKEAEFYDKQL [ZFYVE21]	3.62 ± 0.046	3.67 ± 0.32
DQFTQVFLESQGIELNPPEKMALD [EFHC1]	4.662 ± 0.027	4.78 ± 0.24
DRFLAGVPTPKSHLQLLGAVCMFL [CCND2]	2.63 ± 0.2	2.27 ± 0.21
DRHTKFFEEPEDPSNRSFFSEIIS [PPP2R2B]	3.38 ± 0.1	3.48 ± 0.23
DRILERIEDSTGLNRPGPAPLSSR [TCF25]	4.47 ± 0.21	4.66 ± 0.19
DTAHDFRAKCRNMEHALREKAKAF [TRIM35]	3.18 ± 0.25	3.43 ± 0.23
DTVEIREVHERNDGIDPFPLLMNR [EFHC1]	4.3 ± 0.15	4.42 ± 0.25
DTVTIPVPSEEPQESDQTEEHESG [IQUB]	5.54 ± 0.29	5.72 ± 0.14
DVAVTVDRDRFMDEFFEQVEEIRG [STX1A]	4.35 ± 0.39	4.49 ± 0.25
DVLLLGNDYIVPRHCPELAEMSRV [HNF4A]	2.65 ± 0.2	2.49 ± 0.3
DVTDEHGEREPFAETDEHTGANTK [FAM9B]	5.49 ± 0.12	5.5 ± 0.065
EAARNGKMKFVIGNGKNLVDFTFV [NSDHL]	2.17 ± 0.47	2.04 ± 0.35
EADKNDKAVKDLVVLLFETALLSS [HSP90AB1]	2.13 ± 0.067	2.2 ± 0.39
EAFQLYQEAAQLDMLLEKLPQVAE [FLOT1]	2.43 ± 0.37	2.69 ± 0.44
EAFYYIHNLVVACEIQVRTLASAG [ADD1]	2.93 ± 0.63	2.98 ± 0.57
EAPSTASSTPDSTEGGNDDSDFRE [RTN2]	5.57 ± 0.35	5.63 ± 0.23

Sequence	protein stability index (treatment: DMSO)	protein stability index (treatment: MLN4924 1 uM, 8 h)
EARGIRAPPLPDSPQPLASSPGPW [FCHO1]	4.34 ± 0.28	4.31 ± 0.15
EATPRSLRASGSLCGPHAKAPYLC	2.77 ± 0.26	2.82 ± 0.23
EAYLASLRADQEKERKKREERERK [FAF2]	5.33 ± 0.35	5.46 ± 0.23
EAYTEHRPEITSRAINLLFDIARI [ZER1]	2.14 ± 0.18	2.01 ± 0.21
EDAEGEEEEEEEEEEEDDLSELPP [FKBP8]	5.67 ± 0.19	5.56 ± 0.18
EDEEPQEPNRLETGEAGEELDLRL [RTN2]	5.73 ± 0.12	5.52 ± 0.4
EDELSLVKGSRVTVMEKCSDGWWR [NCK2]	3.68 ± 0.18	3.69 ± 0.32
EDKCPGNYTNPLKVQTVIILGKVI [TMEM192]	2.47 ± 1	2.29 ± 0.37
EDMEASDYELEDETRPAKRITITE [WEE1]	5.42 ± 0.25	5.36 ± 0.17
EDVEAVQKLQDVLHEALQDYEAGQ [ESRRG]	4.92 ± 0.46	4.95 ± 0.51
EEEERLRREEEERRRIEEERLRLE [ACBD3]	5.61 ± 0.25	5.52 ± 0.12
EEEGFGSSSPVKSPAAPYFLGSSF [WEE1]	3.73 ± 0.18	3.77 ± 0.065
EEELQEIASEPTNKHLFYAEDFST [MATN2]	5.26 ± 0.41	5.21 ± 0.32
EEHESGIEQFSESHAIHVEEQSDQ [IQUB]	5.61 ± 0.12	5.56 ± 0.11
EEVLCDSCIGNKQKAVKSCLVCQA [TRIM29]	5.52 ± 0.17	5.22 ± 0.26
EFFAVTRFLVGMMNGGMSLVAFVL [SLC22A15]	2.22 ± 0.24	2.2 ± 0.38
EGCTGALHILARDVHNRIVIRGLN [CTNNB1]	2.65 ± 0.23	2.71 ± 0.17
EGKRKAFYTCASHVTVVILFFVPC [OR4A15]	2.77 ± 0.18	3.03 ± 0.38
EGSLCAAHLPKAQLSGYAVEATRN [FBF1]	4.01 ± 0.17	3.99 ± 0.087
EGYRVSQALRENTYPFLAMIMLKD [FAF2]	2.36 ± 0.2	2.44 ± 0.29
EKEKEKHKVKAEEEKKAKVAPPAK [BRD3]	5.38 ± 0.34	5.56 ± 0.14
EKINKIKWLPQQNAAHSLLSTNDK [PPP2R2C]	4.07 ± 0.19	4.15 ± 0.11

Sequence	protein stability index (treatment: DMSO)	protein stability index (treatment: MLN4924 1 uM, 8 h)
EKLNIPWNHIRLQRTAKGKPVLAK [AASDHPPT]	3.16 ± 0.2	3.05 ± 0.33
ELDDTLKYSFLQFDPAPRRGEPHV [PPP2CA]	3.2 ± 0.32	3.41 ± 0.31
ELDELASKAPVLTYGQPKQAPPAD [EFHC1]	5.44 ± 0.25	5.59 ± 0.15
ELKVKDSQPIDLSACTVALHIFQL [TRIP13]	2.58 ± 0.47	2.15 ± 0.6
ELQGDFSVPDVPKSMAWCENSICV [VPS39]	2.67 ± 0.22	2.67 ± 0.18
ELQREWLGNREALIQFLEQVHQGI [CPN1]	2.76 ± 0.12	2.97 ± 0.3
EMQQQMSLGELCHPVPLSFEPVKS [TRIM14]	3.62 ± 0.22	4.05 ± 0.31
EMREIRRKLRELQLRNCLRILMGE [BEX3]	2.35 ± 0.38	2.28 ± 0.38
ENEKLHQRVEQLTRDLAGLRQFFK [CEBPD]	3.01 ± 1.3	2.55 ± 0.28
ENRGIVVLGINRAYGKNSLSKNLI [AUH]	2.84 ± 1.2	2.44 ± 1.2
EPDNWMKEVMLFGHGTRKRVPLGR [RSAD1]	3.69 ± 0.29	3.32 ± 0.15
EPPVTMIFMGYQNVEDEAETKKVL [PALM]	4.07 ± 0.37	4.09 ± 0.051
EQHDLVYGDWTSGENSDGCYEHFA [CLPTM1]	4.53 ± 0.22	4.41 ± 0.36
EQHVHNEKSVLKEVSHPFLIRLFW [PRKX]	2.25 ± 0.25	2.26 ± 0.081
EQKRLERLQRKLVEPKHCFTSPDY [SDE2]	3.25 ± 0.35	3.62 ± 0.26
EQRDQLERTKSRLVNTSENLSKSR [VTI1B]	5.18 ± 0.31	5.01 ± 0.18
ERMWAAIQSWDINSRRNINYRSFE [ZER1]	2.28 ± 0.35	2.26 ± 0.25
ERQEEQSAAIHISETLEQKPHFES [EPB41L3]	5.43 ± 0.15	5.38 ± 0.28
ERSRDVVDDVSVSLRLWDTFGDHH [RHOBTB2]	3.7 ± 0.14	3.63 ± 0.22
ESDTDIYETVAAATSESTTVEPGK [DRICH1]	5.66 ± 0.14	5.6 ± 0.2
ESDVKHRTRDYKKTSLAPYVKVFE [PRIM1]	3.39 ± 0.33	3.62 ± 0.38
